# Reference: patent publication US20260167699A1 (Chugai, published 2026)
# Changes are numbered by the printed parent chain. Like-named read-outs stand apart in the source and are kept apart here.
# T1: FcγRIIb extracellular domain with C-terminal His tag (human, UniProt P31994 43-217)
# T1 construct: extracellular domain
# T1 sequence: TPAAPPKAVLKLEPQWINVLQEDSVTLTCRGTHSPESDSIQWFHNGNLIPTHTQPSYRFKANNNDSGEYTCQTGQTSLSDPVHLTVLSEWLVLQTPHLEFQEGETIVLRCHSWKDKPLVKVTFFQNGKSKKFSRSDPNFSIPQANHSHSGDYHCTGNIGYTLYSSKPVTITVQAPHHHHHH
# T2: FcγRIIa(R) extracellular domain with C-terminal His tag (human, UniProt P12318 34-217)
# T2 construct: extracellular domain; polymorphic form R131; also called FcγRIIa R type
# T2 sequence: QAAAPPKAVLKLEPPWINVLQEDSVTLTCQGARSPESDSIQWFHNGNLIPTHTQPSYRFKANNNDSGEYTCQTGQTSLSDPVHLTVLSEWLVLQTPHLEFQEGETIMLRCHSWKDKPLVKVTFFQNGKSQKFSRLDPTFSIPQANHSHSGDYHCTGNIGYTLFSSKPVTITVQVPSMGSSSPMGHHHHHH
# T3: FcγRIIa(H) extracellular domain with C-terminal His tag (human, UniProt P12318 34-217)
# T3 construct: extracellular domain; polymorphic form H131; also called FcγRIIa H type
# T3 sequence: T2 sequence with R134H
# T4: FcγRIIb extracellular domain with C-terminal His tag (UniProt P31994 43-217, limits assumed)
# T4 construct: extracellular domain; also called 2b
# T4 sequence: T1 sequence
# T5: FcγRIIa R extracellular domain with C-terminal His tag (UniProt P12318 34-217, limits assumed)
# T5 construct: extracellular domain; also called 2aR
# T5 sequence: T2 sequence
# T6: FcγRIIa H extracellular domain with C-terminal His tag (UniProt P12318 34-217, limits assumed)
# T6 construct: extracellular domain; also called 2aH
# T6 sequence: T2 sequence with R134H
# B1: H240-Kn125/H240-Hl076/L73-k0 (antibody, human IgG1, kappa)
# heavy 1: QDQLVQSGAEVKKPGASVKVSCKASGFNIKDTYIQWVRQAPGQGLEWMGRIDPLRKQTKYREKFEGRVTITADTSTNTAYMELSSLRSEDTAVYYCVRSGREFDYWGQGTLVTVSSASTKGPSVFPLAPSSKSTSGGTAALGCLVKDYFPEPVTVSWNSGALTSGVHTFPAVLQSSGLYSLSSVVTVPSSSLGTQTYICNVNHKPSNTKVDKKVEPKSCDKTHTCPPCPAPEYQWGPMVFLFPPKPKDTLMISRTPEVTCVVVDVSDEEPEVKFNWYVDGVEVHNAKTKPREEQYNATYRVVSVLTVLHQDWLNGKEYKCKVSNKALPAPIEKTISKAKGQPREPQVCTLPPSRDELTKNQVSLWCLVKGFYPSDIAVEWESNGQPENNYKTTPPVLDSDGSFFLYSKLTVDKSRWQQGNVFSCSVMHEALHNHYTQKSLSLSP
# heavy 2: QDQLVQSGAEVKKPGASVKVSCKASGFNIKDTYIQWVRQAPGQGLEWMGRIDPLRKQTKYREKFEGRVTITADTSTNTAYMELSSLRSEDTAVYYCVRSGREFDYWGQGTLVTVSSASTKGPSVFPLAPSSKSTSGGTAALGCLVKDYFPEPVTVSWNSGALTSGVHTFPAVLQSSGLYSLSSVVTVPSSSLGTQTYICNVNHKPSNTKVDKKVEPKSCDKTHTCPPCPAPELLGGPSVFLFPPKPKDTLMISRTPEVTCVVVDVSHEEPEVKFNWYVDGVEVHNAKTKPREEQYNSTYRVVSVLTVLHQDWLNGKEYKCKVSNDALPMPIEETISKAKGQPREPQVYTLPPSRCELTKNQVSLSCAVKGFYPSDIAVEWESNGQPENNYKTTPPVLDSDGSFFLVSKLTVDKSRWQQGNVFSCSVMHEALHNHYTQKSLSLSP
# light: DIQMTQSPSSLSASVGDRVTITCRASQDIHKYIAWYQQKPGQAPRLLIQYTSTLQPGVPSRFSGSGSGTDYTFTISSLQPEDIATYYCLQYEQLRTFGGGTKVEIKRTVAAPSVFIFPPSDEQLKSGTASVVCLLNNFYPREAKVQWKVDNALQSGNSQESVTEQDSKDSTYSLSSTLTLSKADYEKHKVYACEVTHQGLSSPVTKSFNRGEC
# notes: also called Hl076/Kn125; parent peptide
# B2: H240-G1d/L73-k0 (antibody, human IgG1, kappa)
# heavy: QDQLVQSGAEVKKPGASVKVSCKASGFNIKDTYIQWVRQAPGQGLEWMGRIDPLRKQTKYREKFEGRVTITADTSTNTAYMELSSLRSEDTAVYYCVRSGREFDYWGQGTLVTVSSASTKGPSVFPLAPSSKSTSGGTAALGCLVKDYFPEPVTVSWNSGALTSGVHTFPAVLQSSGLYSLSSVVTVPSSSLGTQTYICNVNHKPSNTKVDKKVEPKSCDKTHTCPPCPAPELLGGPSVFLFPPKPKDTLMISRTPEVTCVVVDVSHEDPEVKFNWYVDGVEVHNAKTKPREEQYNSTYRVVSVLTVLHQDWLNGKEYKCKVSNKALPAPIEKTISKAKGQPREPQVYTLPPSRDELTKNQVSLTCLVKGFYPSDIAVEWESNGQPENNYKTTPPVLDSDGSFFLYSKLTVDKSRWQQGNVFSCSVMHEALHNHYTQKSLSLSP
# light: B1 light
# notes: anti-epiregulin IgG1; also called H240-G1d/H240-G1d/L73-k0; naturally occurring IgG1
# B3: H240-afucosyl_G1d/L73-k0 (antibody, human IgG1, kappa)
# heavy: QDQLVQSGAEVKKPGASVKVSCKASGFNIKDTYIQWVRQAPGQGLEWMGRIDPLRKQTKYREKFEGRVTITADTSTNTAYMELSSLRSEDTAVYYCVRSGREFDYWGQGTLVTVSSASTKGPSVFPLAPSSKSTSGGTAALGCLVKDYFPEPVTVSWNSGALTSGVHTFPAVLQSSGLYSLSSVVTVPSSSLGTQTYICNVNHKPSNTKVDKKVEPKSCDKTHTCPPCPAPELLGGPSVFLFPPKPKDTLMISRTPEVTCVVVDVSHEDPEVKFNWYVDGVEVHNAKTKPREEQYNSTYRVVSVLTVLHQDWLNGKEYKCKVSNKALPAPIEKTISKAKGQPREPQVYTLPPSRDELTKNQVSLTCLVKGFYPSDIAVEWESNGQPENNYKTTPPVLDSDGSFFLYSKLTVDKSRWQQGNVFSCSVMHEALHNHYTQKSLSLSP
# light: B1 light
# modifications: afucosylated (fucose-deficient sugar chain)
# notes: afucosylated form of the anti-epiregulin IgG1 H240-G1d/L73-k0; also called afucosylated antibody
# B4: GpH7-B3/GpL16-k0 (antibody, human IgG1, kappa)
# heavy: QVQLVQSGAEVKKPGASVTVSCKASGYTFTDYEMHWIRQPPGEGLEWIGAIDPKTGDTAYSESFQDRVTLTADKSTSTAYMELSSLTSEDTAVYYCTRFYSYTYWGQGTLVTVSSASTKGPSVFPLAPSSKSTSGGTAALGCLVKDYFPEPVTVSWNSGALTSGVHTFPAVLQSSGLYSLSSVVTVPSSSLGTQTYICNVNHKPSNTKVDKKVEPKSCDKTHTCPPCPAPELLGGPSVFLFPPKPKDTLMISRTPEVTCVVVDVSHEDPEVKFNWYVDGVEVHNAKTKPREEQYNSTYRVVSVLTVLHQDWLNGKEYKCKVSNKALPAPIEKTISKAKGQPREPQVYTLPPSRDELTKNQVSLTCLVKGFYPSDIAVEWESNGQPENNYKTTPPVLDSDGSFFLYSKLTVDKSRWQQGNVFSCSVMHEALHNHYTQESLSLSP
# light: DIVMTQSPLSLPVTPGEPASISCQASESLVHSNRNTYLHWYLQKPGQSPQLLIYKVSNRFSGVPDRFSGSGSGTDFTLKISRVEAEDVGVYYCSQNTHVPPTFGQGTKVEIERTVAAPSVFIFPPSDEQLKSGTASVVCLLNNFYPREAKVQWKVDNALQSGNSQESVTEQDSKDSTYSLSSTLTLSKADYEKHKVYACEVTHQGLSSPVTKSFNRGEC
# notes: also called HoCon Ab
# Columns and labels:
# [1] = molecular target: T7, integrin αvβ3 (R & D Systems, Inc.) (UniProt P06756 31-992; P05106 27-718); assay: ELISA on coated integrin αvβ3 (1 µg/mL), detection with HRP-labeled anti-human IgG antibody
# T7 construct: Bought protein
# Experimental: The integrin αvβ3 binding of each molecule with the RGD (Arg-Gly-Asp) peptide inserted in the Fc region was assessed by ELISA (enzyme-Linked immunosorbent assay). Specifically, integrin αvβ3 (R & D Systems, Inc.) diluted to 1 μg/mL with a coating buffer (0.1 M NaHCO₃, pH 9.6) was added at a concentration of 100 μL/well to Nunc-Immuno™ MicroWell™ 96 well solid plates (Nunc) to immobilize the integrin αvβ3 to the plates. Each well of the antigen (integrin αvβ3)-immobilized plates was washed three times with 250 μL of a TBS solution containing 0.1 g/L calcium chloride and 0.1 g/L magnesium chloride (referred to as a TBS(+) solution). A TBS solution containing 5% BSA, 0.1 g/L calcium chloride, and 0.1 g/L magnesium chloride (referred to as a blocking solution) was added thereto at a concentration of 250 μL/well, and the plates were incubated at room temperature for 1 hour.
# After removal of the blocking solution, each well was washed three times with a TBS(+) solution. […]
# After removal of the HRP-labeled antibody solution, each well was washed three times with a TBS(+) solution. […] The absorbance of the solution whose reaction had been stopped was measured at a wavelength of 450 nm.
# [2] = molecular target: T1, FcγRIIb extracellular domain with …; assay: SPR (Biacore), captured antibody, FcγR analyte, 1:1 Langmuir fit; naturally occurring IgG1 (not afucosylated)
# Experimental: (§1) The antibody of interest was analyzed for its interaction with FcγR using a BiaCore™ T100, BiaCore™ A100, or BiaCore™ 4000 surface plasmon resonance system (GE Healthcare Japan Corp.). The running buffer used was HBS-EP+ (GE Healthcare Japan Corp.). The assay temperature was set to 25° C. The sensor chips used were: a chip prepared by immobilizing antigenic peptides onto Series S Sensor Chip CM5 (GE Healthcare Japan Corp.) by the amine coupling method; a chip prepared by immobilizing antigenic peptides biotinylated in advance onto Series S Sensor Chip SA (certified) (GE Healthcare Japan Corp.) through their interaction; a chip prepared by immobilizing protein L (ACTIGEN, BioVision, Inc.) onto Series S Sensor Chip CM5 (GE Healthcare Japan Corp.); and a chip prepared by immobilizing protein A/G (Thermo Fisher Scientific K.K.) onto Series S Sensor Chip CM5 (GE Healthcare Japan Corp.). The antibody of interest was captured onto any of these chips and allowed to interact with FcγR diluted with a running buffer. The antibody captured on the chip was washed off through the reaction of 10 mM glycine-HCl (pH 1.5) to regenerate the chip, which was repetitively used.
# [3] = molecular target: T8, FcγRIIIa(V) extracellular domain with C-terminal His tag (human, UniProt P08637 17-208); assay: SPR (Biacore), captured antibody, FcγR analyte, 1:1 Langmuir fit
# T8 construct: extracellular domain; polymorphic form V158; also called FcγRIIIa V type
# Experimental: as §1
# [4] = molecular target: T9, FcγRIIIa(F) extracellular domain with C-terminal His tag (human, UniProt P08637 17-208); assay: as above
# T9 construct: extracellular domain; polymorphic form F158; also called FcγRIIIa F type
# Experimental: as §1
# [5] = molecular target: T2, FcγRIIa(R) extracellular domain with …; assay: as above
# Experimental: as §1
# [6] = molecular target: T3, FcγRIIa(H) extracellular domain with …; assay: as above
# Experimental: as §1
# [7] = molecular target: T10, FcγRIa extracellular domain with C-terminal His tag (human, UniProt P12314 16-292); assay: as above
# T10 construct: extracellular domain
# Experimental: as §1
# [8] = molecular target: T8, FcγRIIIa(V) extracellular domain with …; assay: as above; remark: listed apart in the source
# Experimental: as §1
# [9] = molecular target: T9, FcγRIIIa(F) extracellular domain with …; assay: as above; remark: listed apart in the source
# Experimental: as §1
# [10] = molecular target: T2, FcγRIIa(R) extracellular domain with …; assay: as above; remark: listed apart in the source
# Experimental: as §1
# [11] = molecular target: T3, FcγRIIa(H) extracellular domain with …; assay: as above; remark: listed apart in the source
# Experimental: as §1
# [12] = molecular target: T10, FcγRIa extracellular domain with …; assay: as above; remark: listed apart in the source
# Experimental: as §1
# [13] = molecular target: T1, FcγRIIb extracellular domain with …; assay: SPR (Biacore), captured antibody, FcγR analyte, 1:1 Langmuir fit; afucosylated G1d; Table 8 reprint of Table 7
# Experimental: as §1
# [14] = molecular target: T1, FcγRIIb extracellular domain with …; assay: SPR (Biacore), captured antibody, FcγR analyte, 1:1 Langmuir fit; afucosylated antibody (same sequence as G1d, other glycoform)
# [15] = molecular target: T4, FcγRIIb extracellular domain with …; assay: SPR (Biacore), as the text refers to Example 3
# [16] = molecular target: T11, FcγRIa extracellular domain with C-terminal His tag (UniProt P12314 16-292, limits assumed); assay: SPR (Biacore), as the text refers to Example 3
# T11 construct: extracellular domain; also called 1a
# [17] = molecular target: T5, FcγRIIa R extracellular domain with …; assay: SPR (Biacore), as the text refers to Example 3
# [18] = molecular target: T6, FcγRIIa H extracellular domain with …; assay: SPR (Biacore), as the text refers to Example 3
# T8 sequence (P08637 other isoform, or with tags, fused parts or gaps): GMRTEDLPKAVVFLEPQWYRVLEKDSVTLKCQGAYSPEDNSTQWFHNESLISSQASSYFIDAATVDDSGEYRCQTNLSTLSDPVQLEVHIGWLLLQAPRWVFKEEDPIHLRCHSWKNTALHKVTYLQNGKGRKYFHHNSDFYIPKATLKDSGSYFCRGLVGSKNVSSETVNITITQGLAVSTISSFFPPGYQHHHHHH
# T9 sequence (P08637 other isoform, or with tags, fused parts or gaps): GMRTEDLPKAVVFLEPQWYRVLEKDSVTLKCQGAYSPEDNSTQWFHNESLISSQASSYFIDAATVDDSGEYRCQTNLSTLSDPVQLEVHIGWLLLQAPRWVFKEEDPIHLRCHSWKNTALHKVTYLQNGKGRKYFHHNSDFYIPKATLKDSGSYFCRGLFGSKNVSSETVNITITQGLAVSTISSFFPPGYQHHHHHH
# T10 sequence (P12314 other isoform, or with tags, fused parts or gaps): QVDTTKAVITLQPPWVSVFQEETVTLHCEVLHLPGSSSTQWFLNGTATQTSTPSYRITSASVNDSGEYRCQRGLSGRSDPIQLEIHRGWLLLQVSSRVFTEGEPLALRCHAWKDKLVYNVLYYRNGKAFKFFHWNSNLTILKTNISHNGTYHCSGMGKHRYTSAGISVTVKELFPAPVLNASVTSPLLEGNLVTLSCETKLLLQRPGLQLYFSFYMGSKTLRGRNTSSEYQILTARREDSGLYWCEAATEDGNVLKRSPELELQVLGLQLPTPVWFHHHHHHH
# T11 sequence (P12314 other isoform, or with tags, fused parts or gaps limits assumed): as the sequence (P12314 other isoform, or with tags, fused parts or gaps) above
# T7 sequence (P06756 31-992, chain 1 of 2): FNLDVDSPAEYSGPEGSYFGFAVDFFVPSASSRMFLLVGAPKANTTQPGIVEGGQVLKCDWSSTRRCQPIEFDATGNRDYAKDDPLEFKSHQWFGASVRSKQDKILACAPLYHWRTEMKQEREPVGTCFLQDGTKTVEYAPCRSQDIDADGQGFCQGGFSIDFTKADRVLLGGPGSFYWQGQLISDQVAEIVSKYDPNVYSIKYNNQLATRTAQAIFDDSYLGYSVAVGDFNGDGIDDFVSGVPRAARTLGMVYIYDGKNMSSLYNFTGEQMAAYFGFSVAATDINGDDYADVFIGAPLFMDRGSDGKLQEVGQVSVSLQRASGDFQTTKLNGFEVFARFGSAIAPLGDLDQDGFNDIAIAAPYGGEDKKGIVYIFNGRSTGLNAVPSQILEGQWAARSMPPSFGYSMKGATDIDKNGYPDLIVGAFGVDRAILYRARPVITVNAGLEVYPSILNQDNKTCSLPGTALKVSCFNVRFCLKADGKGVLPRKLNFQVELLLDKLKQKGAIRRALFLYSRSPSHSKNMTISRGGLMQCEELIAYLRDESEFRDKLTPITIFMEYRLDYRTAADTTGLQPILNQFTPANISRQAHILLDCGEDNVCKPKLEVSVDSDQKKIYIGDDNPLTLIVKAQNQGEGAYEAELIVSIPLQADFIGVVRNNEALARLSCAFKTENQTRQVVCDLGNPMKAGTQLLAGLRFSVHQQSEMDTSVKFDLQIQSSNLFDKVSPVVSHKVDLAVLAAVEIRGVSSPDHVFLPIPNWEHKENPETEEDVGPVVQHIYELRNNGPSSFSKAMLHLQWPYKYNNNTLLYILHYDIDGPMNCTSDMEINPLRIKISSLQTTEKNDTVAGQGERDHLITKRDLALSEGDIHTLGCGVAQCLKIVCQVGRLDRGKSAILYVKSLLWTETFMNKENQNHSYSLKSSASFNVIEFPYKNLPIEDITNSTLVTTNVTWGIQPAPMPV
# T7 sequence (P05106 27-718, chain 2 of 2): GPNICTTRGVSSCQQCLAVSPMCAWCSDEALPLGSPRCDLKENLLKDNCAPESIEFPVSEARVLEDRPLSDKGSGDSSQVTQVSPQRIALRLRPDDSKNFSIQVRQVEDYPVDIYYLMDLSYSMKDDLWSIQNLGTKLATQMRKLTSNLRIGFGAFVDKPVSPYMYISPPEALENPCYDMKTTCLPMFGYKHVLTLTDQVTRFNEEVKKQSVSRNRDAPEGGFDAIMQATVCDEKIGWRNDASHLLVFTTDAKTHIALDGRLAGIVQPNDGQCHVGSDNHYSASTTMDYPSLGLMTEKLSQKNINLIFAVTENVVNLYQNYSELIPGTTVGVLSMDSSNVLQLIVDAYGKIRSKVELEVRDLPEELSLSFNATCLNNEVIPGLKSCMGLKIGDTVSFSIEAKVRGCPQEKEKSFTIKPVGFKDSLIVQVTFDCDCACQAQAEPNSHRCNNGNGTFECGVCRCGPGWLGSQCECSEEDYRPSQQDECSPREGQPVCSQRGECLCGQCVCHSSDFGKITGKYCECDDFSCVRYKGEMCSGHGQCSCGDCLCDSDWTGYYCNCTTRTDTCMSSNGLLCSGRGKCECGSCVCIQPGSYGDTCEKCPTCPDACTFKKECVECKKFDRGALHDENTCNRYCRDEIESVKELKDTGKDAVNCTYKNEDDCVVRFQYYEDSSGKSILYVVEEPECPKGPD
binding result [1],Kd [2] [nM],Kd [3] [nM],Kd [4] [nM],Kd [5] [nM],Kd [6] [nM],Kd [7] [nM],Kd [8] [nM],Kd [9] [nM],Kd [10] [nM],Kd [11] [nM],Kd [12] [nM],Kd [13] [nM],Kd [14] [nM],binding result [15],binding result [16],binding result [17],binding result [18],Binder
no binding (tested: 100 µg/mL),,,,,,,,,,,,,,,,,,B1
,6000,310,1400,880,660,0.23,310,1400,880,660,0.23,,,,,,,B2
,,6.9,78,490,780,0.43,6.9,78,490,780,0.43,2600,2600,,,,,B3
,,,,,,,,,,,,,,binds,binds,binds,binds,B4
